{"source": "paper PMC11208158", "about": "“Structural mechanism of bridge RNA-guided recombination”", "key": {"IS621 recombinase [1]": {"target": "T1, IS621 recombinase (Escherichia coli, UniProt A0A0E0Y1P1 1-326)", "assay": "cryo-EM; initial synaptic complex; MST: 20 nM labelled IS621, RNA 0.076-250 nM, 37 C; labelled protein eluted in 20 mM Tris-HCl pH 7.5, 500 mM NaCl, 5 mM MgCl2, 1 mM DTT, 0.01% Tween 20", "conditions": "protein: recombinant; tags: N-terminal His8, Twin-Strep, HRV 3C site (tag removal not described); chain copies: 4; S6:S5 and S14:S13 duplexes with 6-nt mismatches at positions 2-7; TBL and DBL from two bRNA copies"}, "IS621 recombinase [2]": {"target": "T1, IS621 recombinase", "assay": "MST; 5 mM Mg2+; MST: 20 nM labelled IS621, RNA 0.076-250 nM, 37 C; labelled protein eluted in 20 mM Tris-HCl pH 7.5, 500 mM NaCl, 5 mM MgCl2, 1 mM DTT, 0.01% Tween 20", "conditions": "protein: recombinant; tags: N-terminal His8, Twin-Strep, HRV 3C site (tag removal not described); chain copies: 4; 5' stem loop, TBL and DBL"}}, "data": [{"binder": "WT bRNA + 38-bp tDNA 6mm + 44-bp dDNA 6mm (mixed) RNA: GGGAGUGCAGAGAAAAUCGGCCAGUUUUCUCUGCCUGCAGUCCGCAUGCCGUAUCGGGCCUUGGGUUCUAACCUGUUGCGUAGAUUUAUGCAGCGGACUGCCUUUCUCCCAAAGUGAUAAACCGGACAGUAUCAUGGACCGGUUUUCCCGGUAAUCCGUAUUUGCAAGGUUGGUUUCACU DNA 1: GCCGGGTAATACCACCAAGTCTTCTACAGATGAGCTCG DNA 2: CGAGCTCATCTGTAGGCCTGATGGTGGTATTACCCGGC DNA 3: TGCAGGCCATAAGTCATACTTGTATTATCCCTCCAGTGCAGAGA DNA 4: TCTCTGCACTGGAGGGATAATACAAGATACTGTTATGGCCTGCA", "values": [{"measurement": "binding result", "setting": "IS621 recombinase [1]", "result": "binds"}]}, {"binder": "WT bRNA (177 nt) (structured_RNA) RNA: AGUGCAGAGAAAAUCGGCCAGUUUUCUCUGCCUGCAGUCCGCAUGCCGUAUCGGGCCUUGGGUUCUAACCUGUUGCGUAGAUUUAUGCAGCGGACUGCCUUUCUCCCAAAGUGAUAAACCGGACAGUAUCAUGGACCGGUUUUCCCGGUAAUCCGUAUUUGCAAGGUUGGUUUCACU", "values": [{"measurement": "Kd", "setting": "IS621 recombinase [2]", "result": "3 ± 1", "unit": "nM"}]}]}
